Assays:
MotB-His [1] = target: T1, MotB-His (Enterobacteria phage T4, UniProt Q01437 1-162); assay: EMSA; apparent Kd (50% shift); 4 mM Mg acetate; Oligo EMSA/footprint: 40 mM Tris acetate pH 7.9, 20 mM Tris-HCl pH 8.0, 2 mM K phosphate, 60 mM NaCl, 150 mM K glutamate, 4 mM Mg acetate, 0.52 mM EDTA, 0.14 mM DTT, 0.1 mg/mL BSA, 0.004% Triton X-100, 30% glycerol, 1 nM DNA (5 nM in footprint), 37 C 10 min; T4/lambda EMSA: 20 mM Tris-HCl pH 8, 2 mM K phosphate, 60 mM NaCl, 0.42 mM EDTA, 0.04 mM DTT, 0.004% Triton …; conditions: protein: recombinant; tags: C-terminal His6; label: 5'-32P top strand
T1 sequence: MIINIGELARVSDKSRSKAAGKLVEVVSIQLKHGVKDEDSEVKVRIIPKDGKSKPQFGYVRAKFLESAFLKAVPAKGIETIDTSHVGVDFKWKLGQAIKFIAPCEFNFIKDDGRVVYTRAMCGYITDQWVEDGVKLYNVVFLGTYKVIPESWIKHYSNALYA

MotB-His [2] = target: T1, MotB-His; assay: EMSA; 4 mM Mg acetate; Oligo EMSA/footprint: 40 mM Tris acetate pH 7.9, 20 mM Tris-HCl pH 8.0, 2 mM K phosphate, 60 mM NaCl, 150 mM K glutamate, 4 mM Mg acetate, 0.52 mM EDTA, 0.14 mM DTT, 0.1 mg/mL BSA, 0.004% Triton X-100, 30% glycerol, 1 nM DNA (5 nM in footprint), 37 C 10 min; T4/lambda EMSA: 20 mM Tris-HCl pH 8, 2 mM K phosphate, 60 mM NaCl, 0.42 mM EDTA, 0.04 mM DTT, 0.004% Triton X-100, 30% glycerol, 37 C 10 …; conditions: protein: recombinant; tags: C-terminal His6; label: 5'-32P

B1: dsP8 (37 bp) (dsDNA)
DNA 1: CAGAGACTATAATTAATAAATACAAAAACTATAAATG
DNA 2: CATTTATAGTTTTTGTATTTATTAATTATAGTCTCTG
B1 gave a Kd (MotB-His [1]) of 100 ± 30 nM.

CAGAGACTATAATTAATAAATACAAAAACTATAAATG (ssDNA) [ssP8 (37 nt)] was tested, and the binding signal (MotB-His [2]) was ~6 fold lower affinity than dsP8.

Reference: PMC6070864, “The Bacteriophage T4 MotB Protein, a DNA-Binding Protein, Improves Phage Fitness”
